From the supplement of paper PMC10724198
± gives the standard deviation of the averaged measurements.

How the values were obtained:
[1] = test system: Saccharomyces cerevisiae; assay: protein stability index of tFT-peptide fusion (C-terminal peptide) (PSI (0-1 scale)); higher = more stable (slower turnover)
Protocol: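 MPS profiling in S. cerevisiae of the tFT-X12 degron library: putative degron peptides plus stable controls, 12 aa, fused to the C-terminus of a sfGFP-mCherry timer. Cells are FACS-sorted into 8 mCherry/sfGFP bins and deep-sequenced. PSI runs from 0 (unstable) to 1 (stable). Backgrounds are wild type, das1Δ and doa10Δ at 30 °C, and wild type, das1Δ, cdc34-1 and cdc53-1 at 37 °C; 2-3 technical replicates each.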

[2] = test system: Saccharomyces cerevisiae; assay: as above; details: genetic background: wild type; temperature: 30 C
[3] = genetic background: cdc34-1, temperature: 37 C
[4] = genetic background: cdc53-1, temperature: 37 C
[5] = genetic background: das1 deletion, temperature: 30 C
[6] = genetic background: das1 deletion, temperature: 37 C
[7] = genetic background: doa10 deletion, temperature: 30 C
[8] = genetic background: wild type, temperature: 30 C
[9] = genetic background: wild type, temperature: 37 C
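Further: PSI is a weighted mean of sequencing reads over stability bins, variants kept only with over 10 reads, mCherry proximal and sfGFP distal, peptide attached via GGGS linker.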

VVVWLFRIKSNV
protein stability index [1, 3]: 0.46 ± 0.012
protein stability index [1, 4]: 0.586 ± 0.0096
protein stability index [1, 5]: 0.358 ± 0.059
protein stability index [1, 6]: 0.576 ± 0.005
protein stability index [1, 7]: 0.279 ± 0.0084
protein stability index [1, 8]: 0.318 ± 0.022
protein stability index [1, 9]: 0.497 ± 0.026
protein stability index [2]: 0.425 ± 0.025

SSAFFFLLFSLA
protein stability index [1, 3]: 0.4227 ± 0.003
protein stability index [1, 4]: 0.484 ± 0.006
protein stability index [1, 5]: 0.342 ± 0.031
protein stability index [1, 6]: 0.511 ± 0.009
protein stability index [1, 7]: 0.244 ± 0.0068
protein stability index [1, 8]: 0.266 ± 0.037
protein stability index [1, 9]: 0.446 ± 0.0051
protein stability index [2]: 0.366 ± 0.013

SPGFVLLAVLVI
protein stability index [1, 3]: 0.1636 ± 0.0011
protein stability index [1, 4]: 0.235 ± 0.0088
protein stability index [1, 5]: 0.231 ± 0.029
protein stability index [1, 6]: 0.356 ± 0.016
protein stability index [1, 7]: 0.194 ± 0.002
protein stability index [1, 8]: 0.214 ± 0.025
protein stability index [1, 9]: 0.323 ± 0.04
protein stability index [2]: 0.347 ± 0.086

RGPSQVIVAFFV
protein stability index [1, 3]: 0.663 ± 0.027
protein stability index [1, 4]: 0.6843 ± 0.0038
protein stability index [1, 5]: 0.522 ± 0.026
protein stability index [1, 6]: 0.688 ± 0.0083
protein stability index [1, 7]: 0.3186 ± 0.0031
protein stability index [1, 8]: 0.371 ± 0.026
protein stability index [1, 9]: 0.5674 ± 0.0018
protein stability index [2]: 0.49 ± 0.016

RGSLLRWFLAAQ
protein stability index [1, 3]: 0.628 ± 0.031
protein stability index [1, 4]: 0.707 ± 0.012
protein stability index [1, 5]: 0.654 ± 0.034
protein stability index [1, 6]: 0.706 ± 0.022
protein stability index [1, 7]: 0.289 ± 0.0095
protein stability index [1, 8]: 0.31 ± 0.029
protein stability index [1, 9]: 0.541 ± 0.019
protein stability index [2]: 0.443 ± 0.014

VYVYTIRVRWSE
protein stability index [1, 3]: 0.135 ± 0.024
protein stability index [1, 4]: 0.274 ± 0.039
protein stability index [1, 5]: 0.197 ± 0.013
protein stability index [1, 6]: 0.289 ± 0.023
protein stability index [1, 7]: 0.164 ± 0.021
protein stability index [1, 8]: 0.184 ± 0.027
protein stability index [1, 9]: 0.269 ± 0.03
protein stability index [2]: 0.277 ± 0.015

VARRRQQWMRGS
protein stability index [1, 3]: 0.517 ± 0.066
protein stability index [1, 4]: 0.56 ± 0.034
protein stability index [1, 5]: 0.5261 ± 0.003
protein stability index [1, 6]: 0.54643 ± 0.00042
protein stability index [1, 7]: 0.529 ± 0.0063
protein stability index [1, 8]: 0.516 ± 0.025
protein stability index [1, 9]: 0.5449 ± 0.004
protein stability index [2]: 0.517 ± 0.041

DVRLVLCEMIKG
protein stability index [1, 3]: 0.587 ± 0.048
protein stability index [1, 4]: 0.6123 ± 0.0027
protein stability index [1, 5]: 0.414 ± 0.028
protein stability index [1, 6]: 0.624 ± 0.0012
protein stability index [1, 7]: 0.394 ± 0.021
protein stability index [1, 8]: 0.426 ± 0.021
protein stability index [1, 9]: 0.601 ± 0.0076
protein stability index [2]: 0.513 ± 0.036

GSVLWISCLIFC
protein stability index [1, 3]: 0.157 ± 0.019
protein stability index [1, 4]: 0.267 ± 0.0085
protein stability index [1, 5]: 0.189 ± 0.035
protein stability index [1, 6]: 0.349 ± 0.0061
protein stability index [1, 7]: 0.1641 ± 0.0013
protein stability index [1, 8]: 0.18 ± 0.027
protein stability index [1, 9]: 0.347 ± 0.038
protein stability index [2]: 0.3 ± 0.026

LFFLPPCYWFLL
protein stability index [1, 3]: 0.665 ± 0.023
protein stability index [1, 4]: 0.773 ± 0.024
protein stability index [1, 5]: 0.5834 ± 0.0043
protein stability index [1, 6]: 0.732 ± 0.049
protein stability index [1, 7]: 0.384 ± 0.034
protein stability index [1, 8]: 0.392 ± 0.03
protein stability index [1, 9]: 0.571 ± 0.013
protein stability index [2]: 0.489 ± 0.019

VVPYPFLTLLNI
protein stability index [1, 3]: 0.417 ± 0.026
protein stability index [1, 4]: 0.407 ± 0.029
protein stability index [1, 5]: 0.403 ± 0.041
protein stability index [1, 6]: 0.539 ± 0.014
protein stability index [1, 7]: 0.589 ± 0.033
protein stability index [1, 8]: 0.381 ± 0.012
protein stability index [1, 9]: 0.492 ± 0.0084
protein stability index [2]: 0.58 ± 0.12

ELTYVYRTALIA
protein stability index [1, 3]: 0.152 ± 0.004
protein stability index [1, 4]: 0.157 ± 0.0057
protein stability index [1, 5]: 0.204 ± 0.016
protein stability index [1, 6]: 0.276 ± 0.0057
protein stability index [1, 7]: 0.0966 ± 0.011
protein stability index [1, 8]: 0.105 ± 0.014
protein stability index [1, 9]: 0.0995 ± 0.017
protein stability index [2]: 0.183 ± 0.045

FSALAPTPLLPL
protein stability index [1, 3]: 0.703 ± 0.055
protein stability index [1, 4]: 0.7533 ± 0.0046
protein stability index [1, 5]: 0.672 ± 0.029
protein stability index [1, 6]: 0.739 ± 0.016
protein stability index [1, 7]: 0.662 ± 0.029
protein stability index [1, 8]: 0.671 ± 0.016
protein stability index [1, 9]: 0.7063 ± 0.0068
protein stability index [2]: 0.706 ± 0.042

VCVRLVHCLVLV
protein stability index [1, 3]: 0.2359 ± 0.0019
protein stability index [1, 4]: 0.2514 ± 0.0021
protein stability index [1, 5]: 0.208 ± 0.02
protein stability index [1, 6]: 0.332 ± 0.0068
protein stability index [1, 7]: 0.177 ± 0.01
protein stability index [1, 8]: 0.174 ± 0.017
protein stability index [1, 9]: 0.283 ± 0.014
protein stability index [2]: 0.265 ± 0.031

DECQLCNRDWRG
protein stability index [1, 3]: 0.689 ± 0.069
protein stability index [1, 4]: 0.739 ± 0.013
protein stability index [1, 5]: 0.634 ± 0.015
protein stability index [1, 6]: 0.726 ± 0.019
protein stability index [1, 7]: 0.644 ± 0.032
protein stability index [1, 8]: 0.657 ± 0.042
protein stability index [1, 9]: 0.733 ± 0.018
protein stability index [2]: 0.7185 ± 0.0063

YGAGDLTKYFIV
protein stability index [1, 3]: 0.637 ± 0.037
protein stability index [1, 4]: 0.684 ± 0.046
protein stability index [1, 5]: 0.607 ± 0.0086
protein stability index [1, 6]: 0.726 ± 0.039
protein stability index [1, 7]: 0.114 ± 0.0065
protein stability index [1, 8]: 0.122 ± 0.028
protein stability index [1, 9]: 0.174 ± 0.034
protein stability index [2]: 0.106 ± 0.016

FLIFGMVDFAVV
protein stability index [1, 3]: 0.247 ± 0.035
protein stability index [1, 4]: 0.3554 ± 0.0029
protein stability index [1, 5]: 0.231 ± 0.04
protein stability index [1, 6]: 0.3883 ± 0.0012
protein stability index [1, 7]: 0.202 ± 0.0019
protein stability index [1, 8]: 0.226 ± 0.019
protein stability index [1, 9]: 0.387 ± 0.035
protein stability index [2]: 0.331 ± 0.018

YLMVSKMSLRIG
protein stability index [1, 3]: 0.602 ± 0.021
protein stability index [1, 4]: 0.643 ± 0.0084
protein stability index [1, 5]: 0.532 ± 0.021
protein stability index [1, 6]: 0.609 ± 0.017
protein stability index [1, 7]: 0.296 ± 0.054
protein stability index [1, 8]: 0.306 ± 0.026
protein stability index [1, 9]: 0.516 ± 0.025
protein stability index [2]: 0.401 ± 0.0052

QLIDVGLLNCAA
protein stability index [1, 3]: 0.499 ± 0.044
protein stability index [1, 4]: 0.557 ± 0.033
protein stability index [1, 5]: 0.435 ± 0.03
protein stability index [1, 6]: 0.611 ± 0.052
protein stability index [1, 7]: 0.412 ± 0.011
protein stability index [1, 8]: 0.45 ± 0.027
protein stability index [1, 9]: 0.5616 ± 0.0023
protein stability index [2]: 0.498 ± 0.079

FRYLRPAFLLLH
protein stability index [1, 3]: 0.162 ± 0.071
protein stability index [1, 4]: 0.255 ± 0.029
protein stability index [1, 5]: 0.355 ± 0.027
protein stability index [1, 6]: 0.442 ± 0.0055
protein stability index [1, 7]: 0.0693 ± 0.00084
protein stability index [1, 8]: 0.0405 ± 0.019
protein stability index [1, 9]: 0.0854 ± 0.02
protein stability index [2]: 0.0906 ± 0.031

VCMVLCRWRGLG
protein stability index [1, 3]: 0.601 ± 0.028
protein stability index [1, 4]: 0.704 ± 0.0075
protein stability index [1, 5]: 0.6061 ± 0.0028
protein stability index [1, 6]: 0.6993 ± 0.0046
protein stability index [1, 7]: 0.219 ± 0.011
protein stability index [1, 8]: 0.234 ± 0.038
protein stability index [1, 9]: 0.443 ± 0.026
protein stability index [2]: 0.331 ± 0.01

VVFLWRCRLLLG
protein stability index [1, 3]: 0.276 ± 0.015
protein stability index [1, 4]: 0.346 ± 0.015
protein stability index [1, 5]: 0.213 ± 0.034
protein stability index [1, 6]: 0.416 ± 0.0042
protein stability index [1, 7]: 0.0938 ± 0.011
protein stability index [1, 8]: 0.115 ± 0.027
protein stability index [1, 9]: 0.154 ± 0.0056
protein stability index [2]: 0.164 ± 0.019

RPRRARLPNFLA
protein stability index [1, 3]: 0.37 ± 0.0066
protein stability index [1, 4]: 0.64023 ± 0.0001
protein stability index [1, 5]: 0.653 ± 0.022
protein stability index [1, 6]: 0.705 ± 0.018
protein stability index [1, 7]: 0.0688 ± 0.021
protein stability index [1, 8]: 0.073 ± 0.0067
protein stability index [1, 9]: 0.0894 ± 0.0014
protein stability index [2]: 0.0979 ± 0.012

RGLWAAIPRKCT
protein stability index [1, 3]: 0.669 ± 0.04
protein stability index [1, 4]: 0.74108 ± 0.00026
protein stability index [1, 5]: 0.645 ± 0.0061
protein stability index [1, 6]: 0.754 ± 0.016
protein stability index [1, 7]: 0.179 ± 0.027
protein stability index [1, 8]: 0.223 ± 0.023
protein stability index [1, 9]: 0.548 ± 0.02
protein stability index [2]: 0.358 ± 0.028

PPPPPPPAPASP
protein stability index [1, 5]: 0.665 ± 0.13
protein stability index [1, 6]: 0.68 ± 0.048
protein stability index [1, 7]: 0.553 ± 0.17
protein stability index [1, 8]: 0.635 ± 0.089
protein stability index [1, 9]: 0.629 ± 0.032

FRFFYLPVSVVA
protein stability index [1, 3]: 0.0275 ± 0.013
protein stability index [1, 4]: 0.0356 ± 0.0058
protein stability index [1, 5]: 0.146 ± 0.036
protein stability index [1, 6]: 0.1275 ± 0.00029
protein stability index [1, 7]: 0.105 ± 0.02
protein stability index [1, 8]: 0.142 ± 0.021
protein stability index [1, 9]: 0.0865 ± 0.013
protein stability index [2]: 0.223 ± 0.027

FLFFCGWVSLFG
protein stability index [1, 3]: 0.408 ± 0.024
protein stability index [1, 4]: 0.4636 ± 0.0024
protein stability index [1, 5]: 0.394 ± 0.033
protein stability index [1, 6]: 0.4966 ± 0.0014
protein stability index [1, 7]: 0.333 ± 0.0056
protein stability index [1, 8]: 0.364 ± 0.023
protein stability index [1, 9]: 0.479 ± 0.025
protein stability index [2]: 0.424 ± 0.024
